Eleven molecules from patent publication US20250388688A1 (ETHYREAL BIO, published 2025) can be followed below.

For assay [1], the target named is T1, soluble TSHR protein (ELISA coat) (human, UniProt P16473 22-260, limits assumed). Description: ELISA, plate coated with soluble TSHR, antibody at 100 nM, anti-human IgG Fc-HRP.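 Also: binding of antibody variants to soluble TSHR coated at 2 µg/ml, with colour developed using TMB substrate and stopped with H2SO4.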
Description: (§1) Select TSHR antibody variants were tested for their ability to bind TSHR in an ELISA. Briefly, soluble TSHR protein was coated onto a plate at 2 μg/ml in phosphate buffered saline (PBS). The plate was washed with PBS and blocked with 4% skim milk in PBS.
(§2) Following wash steps with 1×PBS-Tween 0.05%, bound human IgG was detected with peroxidase conjugated goat anti-human IgG (Fc specific)-HRP at 1:5000 dilution and the ELISA was developed with TMB reagent followed by H2SO4.
In assay [2] the target is T1, soluble TSHR protein (ELISA coat). Description: ELISA, plate coated with soluble TSHR, antibody at 300 nM, anti-human IgG Fc-HRP.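 Also: TSHR coated at 2 µg/ml, bound antibody revealed by goat anti-human IgG Fc HRP, color developed with TMB and stopped with H2SO4.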
Description: as §1, §2
The target is the same in assay [3]. Kind of assay: ELISA, plate coated with soluble TSHR, antibody at 33.3 nM, anti-human IgG Fc-HRP.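 Also: binding of antibody variants to plate-bound soluble TSHR (coated at 2 µg/ml), with bound human IgG detected by HRP conjugate and colour developed using TMB substrate.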
Description: as §1, §2
Assay [4] has as its target T2, Soluble TSHR (22-260) protein (human, UniProt P16473 22-260).
T2 construct: range 22-260
Kind of assay: SPR (Biacore T200, 25 C), antibody captured on anti-human Fc, soluble TSHR (22-260) as analyte, 1:1 fit.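 Also: antibodies captured at 0.1 ug/mL on a CM5 sensor chip bearing anti-human Fc, with HBS-EP+ running buffer at pH 7.4.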
Description: Measurements were taken on a Biacore T200 at 25 C using a CM5 chip coated with anti-human Fc. Test antibodies were captured at 0.1 ug/mL in HBS-EP+ (10 mM HEPES pH7.4, 150 mM NaCl, 3 mM EDTA, 0.05% Tween 20) assay buffer. […] A 1:1 binding kinetics fit was used to calculate kinetic parameters.

B1: parental TSHR-binding antibody (antibody, V domains shown)
VH: EVQLVQSGAEVKKPGQSLKISCKASGYSLTDNWIGWVRQKPGKGLEWMGIIYPGDSDTRYSPSFQGQVTISADKSINTAYLQWSSLKASDTAIYYCVGLDWNYNPLRYWGPGTLVTVSS
VL: QSVLTQPPSVSAAPGQKVTISCSGSSSDIGSNYVSWYQQFPGTAPKLLIYDNNKRPSAIPDRFSGSKSGTSATLGITGLQTGDEADYYCGTWDSRLGIAVFGGGTQLTVL
notes: it has a human Fc (captured on anti-human Fc, detected with anti-human IgG Fc); also called parental antibody; parental anti-TSHR antibody
In the case of B1, the “ELISA (OD 450) at 100 nM” value in assay [1] was determined as 0.43 OD 450. In assay [2], the “ELISA (OD 450) at 300 nM” value came out at 0.461 OD 450. In addition, in assay [3], the “ELISA (OD 450) at 33.3 nM” value was 0.406 OD 450.

B2: TSHB-12 (antibody, V domains shown)
VH: EVQLVQSGAEVKKPGASVKVSCKASGYSLTDNWIGWVRQAPGQGLEWMGIIYPGDSDTRYAQKFQGRVTMTADKSTSTVYMELSSLRSEDTAVYYCVGLDWNYNPLRYWGQGTLVTVSS
VL: QSVLTQPPSVSAAPGQKVTISCSGSSSDIGSNYVSWYQQFPGTAPKLLIYDNNKRPSAIPDRFSGSKSGTSATLGITGLQTGDEADYYCGTWDSRLGIAVFGGGTQLTVL
Consider B2, for which the “ELISA (OD 450) at 100 nM” value in assay [1] turned out to be 0.475 OD 450. Besides, the “ELISA (OD 450) at 300 nM” value in assay [2] was found to be 0.52 OD 450. Further, the “ELISA (OD 450) at 33.3 nM” value in assay [3] was found to be 0.402 OD 450.

B3: TSHB-4 (antibody, V domains shown)
VH: EVQLVQSGAEVKKPGESLKISCKASGYELTDNWIGWVRQKPGKGLEWMGIIYPGDSDTRYSPSFQGQVTISADKSISTAYLQWSSLKASDTAIYYCVGLDWNYNPLRYWGQGTLVTVSS
VL: QSVLTQPPSVSAAPGQKVTISCSGSSSDIGSNYVSWYQQFPGTAPKLLIYDNNKRPSAIPDRFSGSKSGTSATLGITGLQTGDEADYYCGTWDSRLGIAVFGGGTQLTVL
For B3, in assay [4], binding was put at a Kd of 2.41 nM, the koff amounted to 0.000362 s⁻¹ and the kon was 150000 M⁻¹ s⁻¹. Further, the “ELISA (OD 450) at 100 nM” value in assay [1] turned out to be 0.453 OD 450. Moreover, in assay [2], the “ELISA (OD 450) at 300 nM” value worked out at 0.542 OD 450. Moreover, the “ELISA (OD 450) at 33.3 nM” value in assay [3] stood at 0.374 OD 450.

B4: TSHB-1 (antibody, V domains shown)
VH: EVQLVQSGAEVKKPGESLKISCKASGYSLTDNWIGWVRQKPGKGLEWMGIIYPGDSDTRYSPSFQGQVTISADKSISTAYLQWSSLKASDTAIYYCVGLDWNYNPLRYWGQGTLVTVSS
VL: QSVLTQPPSVSAAPGQKVTISCSGSSSDIGSNYVSWYQQFPGTAPKLLIYDNNKRPSAIPDRFSGSKSGTSATLGITGLQTGDEADYYCGTWDSRLGIAVFGGGTQLTVL
In assay [4], B4 displayed a Kd of 1.7 nM, a koff of 0.000273 s⁻¹ and a kon of 161000 M⁻¹ s⁻¹. In assay [1], the “ELISA (OD 450) at 100 nM” value is 0.506 OD 450. Besides, the “ELISA (OD 450) at 300 nM” value in assay [2] is 0.641 OD 450. The “ELISA (OD 450) at 33.3 nM” value in assay [3] was determined as 0.442 OD 450.

B5: TSHB-7 (antibody, V domains shown)
VH: EVQLVQSGAEVKKPGESLKISCKASGYSLKDNWIGWVRQKPGKGLEWMGIIYPGDSDTRYSPSFQGQVTISADKSISTAYLQWSSLKASDTAIYYCVGLDWNYNPLRYWGQGTLVTVSS
VL: QSVLTQPPSVSAAPGQKVTISCSGSSSDIGSNYVSWYQQFPGTAPKLLIYDNNKRPSAIPDRFSGSKSGTSATLGITGLQTGDEADYYCGTWDSRLGIAVFGGGTQLTVL
B5: in assay [4], the Kd stood at 4.11 nM, the off-rate (koff) was found to be 0.000477 s⁻¹ and the kon turned out to be 116000 M⁻¹ s⁻¹. The “ELISA (OD 450) at 100 nM” value in assay [1] is 0.491 OD 450. For the same molecule, in assay [2], the “ELISA (OD 450) at 300 nM” value stood at 0.555 OD 450. For the same molecule, in assay [3], the “ELISA (OD 450) at 33.3 nM” value stood at 0.443 OD 450.

B6: TSHB-6 (antibody, V domains shown)
VH: EVQLVQSGAEVKKPGESLKISCKASGYSLNDNWIGWVRQKPGKGLEWMGIIYPGDSDTRYSPSFQGQVTISADKSISTAYLQWSSLKASDTAIYYCVGLDWNYNPLRYWGQGTLVTVSS
VL: QSVLTQPPSVSAAPGQKVTISCSGSSSDIGSNYVSWYQQFPGTAPKLLIYDNNKRPSAIPDRFSGSKSGTSATLGITGLQTGDEADYYCGTWDSRLGIAVFGGGTQLTVL
In assay [4], B6 registered an equilibrium dissociation constant (Kd) of 3.73 nM, an off-rate constant (koff) of 0.000532 s⁻¹ and an on-rate (kon) of 142000 M⁻¹ s⁻¹. The “ELISA (OD 450) at 100 nM” value in assay [1] was 0.493 OD 450. Also, in assay [2], the “ELISA (OD 450) at 300 nM” value was 0.548 OD 450. For the same molecule, in assay [3], the “ELISA (OD 450) at 33.3 nM” value was 0.45 OD 450.

B7: TSHB-13 (antibody, V domains shown)
VH: EVQLVQSGAEVKKPGQSLKISCKASGYSLTDNWIGWVRQKPGKGLEWMGIIYPGDSDTRYSPSFQGQVTISADKSINTAYLQWSSLKASDTAIYYCVGLDWNYNPLRYWGPGTLVTVSS
VL: QSVLTQPPSVSAAPGQKVTISCSGSSSDIGSNYVSWYQQLPGTAPKLLIYDNNKRPSGIPDRFSGSKSGTSATLGITGLQTGDEADYYCGTWDSRLGIAVFGGGTQLTVL
With B7, the “ELISA (OD 450) at 100 nM” value in assay [1] was found to be 0.495 OD 450. Further, the “ELISA (OD 450) at 300 nM” value in assay [2] came to 0.561 OD 450. Further, the “ELISA (OD 450) at 33.3 nM” value in assay [3] was 0.459 OD 450.

B8: TSHB-3 (antibody, V domains shown)
VH: EVQLVQSGAEVKKPGESLKISCKASGYSLTDNWIGWVRQKPGKGLEWMGIIYPGDSDTRYSPSFQGQVTISADKSISTAYLQWSSLKASDTAIYYCVGLEWNYNPLRYWGQGTLVTVSS
VL: QSVLTQPPSVSAAPGQKVTISCSGSSSDIGSNYVSWYQQFPGTAPKLLIYDNNKRPSAIPDRFSGSKSGTSATLGITGLQTGDEADYYCGTWDSRLGIAVFGGGTQLTVL
Take B8: in assay [4], the affinity, expressed as Kd, was 3.01 nM; the koff is 0.000533 s⁻¹; the kon was 177000 M⁻¹ s⁻¹. In assay [1], the “ELISA (OD 450) at 100 nM” value worked out at 0.407 OD 450. Further, in assay [2], the “ELISA (OD 450) at 300 nM” value was found to be 0.467 OD 450. In assay [3], the “ELISA (OD 450) at 33.3 nM” value is 0.351 OD 450.

B9: TSHB-22 (antibody, V domains shown)
VH: EVQLVQSGAEVKKPGQSLKISCKASGYSLTDNWIGWVRQKPGKGLEWMGIIYPGDSDTRYSPSFQGQVTISADKSINTAYLQWSSLKASDTAIYYCVGLDWNYNPLRYWGPGTLVTVSS
VL: QSVLTQPPSVSGAPGQRVTISCSGSSSDIGSNYVSWYQQLPGTAPKLLIYDNNKRPSGVPDRFSGSKSGTSASLAITGLQAEDEADYYCGTWDSRLGIAVFGGGTKLTVL
As to B9, in assay [1], the “ELISA (OD 450) at 100 nM” value was determined as 0.493 OD 450. The “ELISA (OD 450) at 300 nM” value in assay [2] is 0.53 OD 450. Further, the “ELISA (OD 450) at 33.3 nM” value in assay [3] was 0.447 OD 450.

B10: TSHB-5 (antibody, V domains shown)
VH: EVQLVQSGAEVKKPGESLKISCKASGYQLTDNWIGWVRQKPGKGLEWMGIIYPGDSDTRYSPSFQGQVTISADKSISTAYLQWSSLKASDTAIYYCVGLDWNYNPLRYWGQGTLVTVSS
VL: QSVLTQPPSVSAAPGQKVTISCSGSSSDIGSNYVSWYQQFPGTAPKLLIYDNNKRPSAIPDRFSGSKSGTSATLGITGLQTGDEADYYCGTWDSRLGIAVFGGGTQLTVL
In assay [4], B10 came in with a dissociation constant Kd of 2.82 nM, a koff of 0.00044 s⁻¹ and a kon of 156000 M⁻¹ s⁻¹. Moreover, in assay [1], the “ELISA (OD 450) at 100 nM” value worked out at 0.498 OD 450. In addition, the “ELISA (OD 450) at 300 nM” value in assay [2] worked out at 0.578 OD 450. Besides, the “ELISA (OD 450) at 33.3 nM” value in assay [3] is 0.414 OD 450.

B11: TSHB-25 (antibody, V domains shown)
VH: EVQLVQSGAEVKKPGASVKVSCKASGYSLTDNWIGWVRQAPGQGLEWMGIIYPGDSDTRYAQKFQGRVTMTADKSTSTVYMELSSLRSEDTAVYYCVGLDWNYNPLRYWGQGTLVTVSS
VL: QSVLTQPPSVSGAPGQRVTISCSGSSSDIGSNYVSWYQQLPGTAPKLLIYDNNKRPSGVPDRFSGSKSGTSASLAITGLQAEDEADYYCGTWDSRLGIAVFGGGTKLTVL
In the case of B11, the “ELISA (OD 450) at 100 nM” value in assay [1] amounted to 0.409 OD 450. Besides, in assay [2], the “ELISA (OD 450) at 300 nM” value is 0.367 OD 450. Moreover, the “ELISA (OD 450) at 33.3 nM” value in assay [3] worked out at 0.38 OD 450.
